According to patent US20130052176, “APTAMER FOR NGF AND USE THEREOF” (SHIONOGI & CO., LTD, published 2013):

Key:
[1] = molecular target: T1, NGF (nerve growth factor) (human, UniProt P01138 P01138:122-241); assay: cell_activity; neurite outgrowth, NGF 1.1 nM; details: tags: human NGF; chain copies: 2
Experimental: (§1) The neurite outgrowth inhibitory activity of the aptamer obtained in Example 1 was evaluated by using Neuroscreen-1 cell, which is a subclone of PC-12 cells.
(§2) The cells (2500 cells per well) were cultured for one day in an RPMI-1640 medium containing 2.5% horse serum and 1.25% fetal bovine serum in a 96 well flat-bottom plate coated with collagen type IV. […] Two days later, the cytoplasm and nuclei were stained using Cellomics Neurite Outgrowth Kit (manufactured by Thermo Scientific), and neurite length per cell was measured by Cellomics ArrayScan VTI (manufactured by Thermo Scientific). With the neurite length per cell obtained by the addition of NGF alone as inhibitory activity 0%, and that of the cell obtained by NGF free culture for 2 days as inhibitory activity 100%, the inhibitory activity of the aptamer was calculated from the neurite length per cell obtained by culturing with the addition of NGF and the aptamer in mixture. When the inhibitory activity was 0% or below, ‘0%’ is indicated.

[2] = molecular target: T1, NGF (nerve growth factor); assay: cell_activity; neurite outgrowth, NGF 1.1 nM; SPR binding; blocks NGF-TrkA; TF-1 IC50 8.0 nM; details: tags: amine-coupled to CM5 chip in SPR; soluble in cell assays; chain copies: 2
Experimental: as §1, §2

[3] = molecular target: T1, NGF (nerve growth factor); assay: cell_activity; neurite outgrowth, NGF 1.1 nM; TF-1 IC50 6.2 nM; details: tags: human NGF; chain copies: 2
Experimental: as §1, §2

[4] = molecular target: T1, NGF (nerve growth factor); assay: cell_activity; neurite outgrowth, NGF 1.1 nM; SPR binding; blocks NGF-TrkA and NGF-p75; TF-1 IC50 1.3 nM; details: tags: amine-coupled to CM5 chip in SPR; soluble in cell assays; chain copies: 2
Experimental: as §1, §2

[5] = molecular target: T1, NGF (nerve growth factor); assay: cell_activity; neurite outgrowth, NGF 1.1 nM; SPR binding; blocks NGF-TrkA and NGF-p75; TF-1 IC50 2.1 nM; details: tags: amine-coupled to CM5 chip in SPR; soluble in cell assays; chain copies: 2
Experimental: as §1, §2

[6] = molecular target: T1, NGF (nerve growth factor); assay: cell_activity; neurite outgrowth, NGF 1.1 nM; SPR binding; blocks NGF-TrkA and NGF-p75; details: tags: amine-coupled to CM5 chip in SPR; soluble in cell assays; chain copies: 2
Experimental: as §1, §2

[7] = molecular target: T1, NGF (nerve growth factor); assay: cell_activity; neurite outgrowth, NGF 1.1 nM; TF-1 IC50 5.3 nM; details: tags: human NGF; chain copies: 2
Experimental: as §1, §2

[8] = molecular target: T1, NGF (nerve growth factor); assay: cell_activity; neurite outgrowth, NGF 1.1 nM; SPR binding; TF-1 IC50 6.3 nM; details: tags: amine-coupled to CM5 chip in SPR; soluble in cell assays; chain copies: 2
Experimental: as §1, §2

[9] = molecular target: T1, NGF (nerve growth factor); assay: cell_activity; neurite outgrowth, NGF 1.1 nM; SPR binding; TF-1 IC50 5.4 nM; details: tags: amine-coupled to CM5 chip in SPR; soluble in cell assays; chain copies: 2
Experimental: as §1, §2

[10] = molecular target: T2, NT-3 (human, UniProt P20783 P20783:139-257); assay: SPR; binding to NT-3 not observed; TF-1 IC50 >1000 nM; details: tags: R&D Systems; chain copies: 2
T2 sequence: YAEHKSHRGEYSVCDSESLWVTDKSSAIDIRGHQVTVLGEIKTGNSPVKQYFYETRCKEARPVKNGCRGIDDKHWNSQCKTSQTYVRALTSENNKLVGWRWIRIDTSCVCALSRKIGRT

[11] = molecular target: T1, NGF (nerve growth factor); assay: cell_activity; neurite outgrowth, NGF 0.38 nM; SPR binding; blocks NGF-TrkA and NGF-p75; TF-1 IC50 0.07 nM; details: tags: amine-coupled to CM5 chip in SPR; soluble in cell assays; chain copies: 2
[12] = molecular target: T1, NGF (nerve growth factor); assay: cell_activity; neurite outgrowth, NGF 0.38 nM; SPR binding; TF-1 IC50 >0.3 nM; details: tags: amine-coupled to CM5 chip in SPR; soluble in cell assays; chain copies: 2
Experimental: as §1, §2

[13] = molecular target: T1, NGF (nerve growth factor); assay: cell_activity; neurite outgrowth, NGF 0.38 nM; TF-1 IC50 0.348 nM; details: tags: human NGF; chain copies: 2
Experimental: as §1, §2

[14] = molecular target: T1, NGF (nerve growth factor); assay: cell_activity; neurite outgrowth, NGF 0.38 nM; SPR binding; TF-1 IC50 0.058 nM; details: tags: amine-coupled to CM5 chip in SPR; soluble in cell assays; chain copies: 2

T1 sequence (P01138 122-241, one chain of several): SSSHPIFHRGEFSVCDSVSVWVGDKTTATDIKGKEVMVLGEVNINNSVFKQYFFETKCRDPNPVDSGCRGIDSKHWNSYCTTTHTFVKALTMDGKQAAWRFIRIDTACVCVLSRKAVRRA

B1: aptamer ID 48 (ssRNA)
RNA: GGGAGAACUUCGACCAGAGUCGAUAACGAACAAAACUCCCAAAUAUGUGCGCAUAC
modifications: 2'-F all pyrimidines
[1]
  IC50: 1.8 nM

B2: aptamer ID 55 (ssRNA)
RNA: GGGAUAAAAAUAGAGUUUGAUAAACACCUGUAUUAAAACCC
modifications: 5' cholesterol; 3' idT; 2'-F pyrimidines and a37,a38; 2'-OMe other purines except 2'-OH at 4,7,30
[2]
  IC50: 9.8 nM

B3: aptamer ID 57(2) (mixed)
mixed: GGGAUAAAAAUAGAGTUUGATAAACACCUGUAUUAAAACCC
modifications: as ID 57 (5' cholesterol; 3' idT; dT16,dT21; 2'-F other pyrimidines and a37,a38; 2'-OMe purines except ribo a4,a7,g30) plus PS between 16 and 17
[3]
  IC50: < 3 nM

B4: aptamer ID 61 (mixed)
mixed: GGGAUAAAAAUAGAGTUUGATAAACACCUGUAUUAAAACCC
modifications: 5' cholesterol; 3' idT; 2'-F pyrimidines (except dT at 16,21) and a38; 2'-OMe other purines except 2'-OH at 4,7,30,37
[4]
  IC50: < 3 nM

B5: aptamer ID 63 (mixed)
mixed: GGGAUAAAAAUAGAGTUUGATAAACACCUGUAUUAAAACCC
modifications: 5' cholesterol; 3' idT; 2'-F pyrimidines (except dT at 16,21); 2'-OMe other purines except 2'-OH at 4,7,30,37,38
[5]
  IC50: < 3 nM

B6: aptamer ID 56 (mixed)
mixed: GGGAUAAAAAUAGAGUUUGATAAACACCUGUAUUAAAACCC
modifications: 5' cholesterol; 3' idT; 2'-F pyrimidines (except dT at 21) and a37,a38; 2'-OMe other purines except 2'-OH at 4,7,30
[6]
  IC50: 4.1 nM

B7: aptamer ID 57(8) (mixed)
mixed: GGGAUAAAAAUAGAGTUUGATAAACACCUGUAUUAAAACCC
modifications: as ID 57 (5' cholesterol; 3' idT; dT16,dT21; 2'-F other pyrimidines and a37,a38; 2'-OMe purines except ribo a4,a7,g30) plus PS between 24 and 25
[3]
  IC50: < 3 nM

B8: aptamer ID 57(7) (mixed)
mixed: GGGAUAAAAAUAGAGTUUGATAAACACCUGUAUUAAAACCC
modifications: as ID 57 (5' cholesterol; 3' idT; dT16,dT21; 2'-F other pyrimidines and a37,a38; 2'-OMe purines except ribo a4,a7,g30) plus PS between 23 and 24
[7]
  IC50: < 3 nM

B9: aptamer ID 57 (mixed)
mixed: GGGAUAAAAAUAGAGTUUGATAAACACCUGUAUUAAAACCC
modifications: 5' cholesterol; 3' idT; dT16,dT21; 2'-F other pyrimidines and a37,a38; 2'-OMe purines except ribo a4,a7,g30
[1]
  IC50: < 3 nM

B10: aptamer ID 62 (mixed)
mixed: GGGAUAAAAAUAGAGTUUGATAAACACCUGUAUUAAAACCC
modifications: 5' cholesterol; 3' idT; 2'-F pyrimidines (except dT at 16,21) and a37; 2'-OMe other purines except 2'-OH at 4,7,30,38
[8]
  IC50: 4.6 nM

B11: aptamer ID 57(6) (mixed)
mixed: GGGAUAAAAAUAGAGTUUGATAAACACCUGUAUUAAAACCC
modifications: as ID 57 (5' cholesterol; 3' idT; dT16,dT21; 2'-F other pyrimidines and a37,a38; 2'-OMe purines except ribo a4,a7,g30) plus PS between 22 and 23
[7]
  IC50: < 3 nM

B12: aptamer ID 60 (mixed)
mixed: GGGAUAAAAAUAGAGTUUGATAUACACCUGUAUUAAAACCC
modifications: 5' cholesterol; 3' idT; 2'-F pyrimidines (except dT at 16,21) and a37,a38; 2'-OMe other purines except 2'-OH at 4,7,30
[9]
  IC50: < 3 nM

B13: aptamer ID 26(2) (ssRNA)
RNA: GGGAGACUCGCCAGAGUUGAAAGAAACCCAAAUAAGUGUGCGCAC
modifications: 2'-F pyrimidines; 2'-OMe purines except 2'-OH at 3,5,19-22,24,26; 5' idT and 3' idT
[10]
  binding result: no binding
[11]
  IC50: 0.06 nM

B14: aptamer ID 26(36) (ssRNA)
RNA: GGGAGACUCGCCAGAGUUGAAAGAAACCCAAAUAAGUGUGCGCAC
modifications: 2'-F pyrimidines except 2'-OMe at 7; 2'-OMe purines except 2'-OH at 3,19,20,26; PS between 3 and 4; 5' idT and 3' idT
[12]
  IC50: 0.211 nM

B15: aptamer ID 26(68) (ssRNA)
RNA: GGGAGACUCGCCAGAGUUGAAAGAAACCCAAAUAAGUGUGCGCAC
modifications: 5' PEG80TS2 via ssH linker; 3' idT; 2'-F all pyrimidines; 2'-OMe purines except ribo g3,g19,a20,a26
[13]
  IC50: 0.128 nM

## GGGAGACUCGCCAGAGUUGAAAGAAACCCAAAUAAGUGUGCGCAC (ssRNA, 2'-F pyrimidines; 2'-OMe purines except 2'-OH at 3,5,19-22; 5' idT and 3' idT) [aptamer ID 26(11)]
[14]
  IC50: 0.087 nM
